# ± gives the uncertainty stated by the source.
# B1: POU domain, class 3, transcription factor 1, residues 247 to 324; numbered along this chain, Q03052 (parent)
# chain: EDAPSSDDLEQFAKQFKQRRIKLGFTQADVGLALGTLYGNVFSQTTICRFEALQLSFKNMCKLKPLLNKWLEETDSSS
# Variants of: B1
# Assay: abundance fitness (aPCA) (normalised: wild type 0, dead -1); higher = more abundant; growth selection in yeast, the domain comes from the species named
# Conditions: Homo sapiens
row,Variant,abundance fitness
1,EDAPSSDDLEQFAKQFKQRRIPLGFTQADVGLALGTLYGNVFSQTTICRFEALQLSFKNMCKLKPLLNKWLEETDSSS,-1.04 ± 0.28
2,EDAPSSDDLEQFAKQFKQRRITLGFTQADVGLALGTLYGNVFSQTTICRFEALQLSFKNMCKLKPLLNKWLEETDSSS,-0.106 ± 0.084
3,EDAPSSDDLEQFAKQFKQRRIHLGFTQADVGLALGTLYGNVFSQTTICRFEALQLSFKNMCKLKPLLNKWLEETDSSS,0.068 ± 0.24
4,EDAPSSDDLEQFAKQFKQRRIILGFTQADVGLALGTLYGNVFSQTTICRFEALQLSFKNMCKLKPLLNKWLEETDSSS,-0.743 ± 0.42
5,EDAPSSDDLEQFAKQFKQRRILLGFTQADVGLALGTLYGNVFSQTTICRFEALQLSFKNMCKLKPLLNKWLEETDSSS,-0.128 ± 0.066
6,EDAPSSDDLEQFAKQFKQRRIGLGFTQADVGLALGTLYGNVFSQTTICRFEALQLSFKNMCKLKPLLNKWLEETDSSS,-0.349 ± 0.061
7,EDAPSSDDLEQFAKQFKQRRIKLGFWQADVGLALGTLYGNVFSQTTICRFEALQLSFKNMCKLKPLLNKWLEETDSSS,-0.998 ± 0.27
8,EDAPSSDDLEQFAKQFKQRRIKLGFAQADVGLALGTLYGNVFSQTTICRFEALQLSFKNMCKLKPLLNKWLEETDSSS,-0.497 ± 0.097
9,EDAPSSDDLEQFAKQFKQRRIKLGFKQADVGLALGTLYGNVFSQTTICRFEALQLSFKNMCKLKPLLNKWLEETDSSS,-0.746 ± 0.26
10,EDAPSSDDLEQFAKQFKQRRIKLGFGQADVGLALGTLYGNVFSQTTICRFEALQLSFKNMCKLKPLLNKWLEETDSSS,-0.456 ± 0.083
11,EDAPSSDDLEQFAKQFKQRRIKLGFNQADVGLALGTLYGNVFSQTTICRFEALQLSFKNMCKLKPLLNKWLEETDSSS,-0.436 ± 0.22
12,EDAPSSDDLEQFAKQFKQRRIKLGFHQADVGLALGTLYGNVFSQTTICRFEALQLSFKNMCKLKPLLNKWLEETDSSS,-0.15 ± 0.23
13,EDAPSSDDLEQFAKQFKQRRIKLGFMQADVGLALGTLYGNVFSQTTICRFEALQLSFKNMCKLKPLLNKWLEETDSSS,-0.559 ± 0.2
14,EDAPSSDDLEQFAKQFKQRRIKLGFSQADVGLALGTLYGNVFSQTTICRFEALQLSFKNMCKLKPLLNKWLEETDSSS,-0.093 ± 0.075
15,EDAPSSDDLEQFAKQFKQRRIKLGFLQADVGLALGTLYGNVFSQTTICRFEALQLSFKNMCKLKPLLNKWLEETDSSS,-0.699 ± 0.16
16,EDAPSSDDLEQFAKQFKQRRIKLGFIQADVGLALGTLYGNVFSQTTICRFEALQLSFKNMCKLKPLLNKWLEETDSSS,-0.951 ± 0.41
17,EDAPSSDDLEQFAKQFKQRRIKLGFDQADVGLALGTLYGNVFSQTTICRFEALQLSFKNMCKLKPLLNKWLEETDSSS,-0.86 ± 0.41
18,EDAPSSDDLEQFAKQFKQRRIKLGFQQADVGLALGTLYGNVFSQTTICRFEALQLSFKNMCKLKPLLNKWLEETDSSS,-0.192 ± 0.27

row,Variant,abundance fitness
1,EDAPSSDDLEQFAKQFKQRRIKLGFEQADVGLALGTLYGNVFSQTTICRFEALQLSFKNMCKLKPLLNKWLEETDSSS,-0.298 ± 0.12
2,EDAPSSDDLEQFAKQFKQRRIKLGFVQADVGLALGTLYGNVFSQTTICRFEALQLSFKNMCKLKPLLNKWLEETDSSS,-0.724 ± 0.14
3,EDAPSSDDLEQFAKQFKQRRIKLGFPQADVGLALGTLYGNVFSQTTICRFEALQLSFKNMCKLKPLLNKWLEETDSSS,-0.919 ± 0.3
4,EDAPSSDDLEQFAKQFKQRRIKRGFTQADVGLALGTLYGNVFSQTTICRFEALQLSFKNMCKLKPLLNKWLEETDSSS,-0.313 ± 0.068
5,EDAPSSDDLEQFAKQFKQRRIKSGFTQADVGLALGTLYGNVFSQTTICRFEALQLSFKNMCKLKPLLNKWLEETDSSS,-0.59 ± 0.13
6,EDAPSSDDLEQFAKQFKQRRIKMGFTQADVGLALGTLYGNVFSQTTICRFEALQLSFKNMCKLKPLLNKWLEETDSSS,0.124 ± 0.072
7,EDAPSSDDLEQFAKQFKQRRIKQGFTQADVGLALGTLYGNVFSQTTICRFEALQLSFKNMCKLKPLLNKWLEETDSSS,-0.31 ± 0.12
8,EDAPSSDDLEQFAKQFKQRRIKIGFTQADVGLALGTLYGNVFSQTTICRFEALQLSFKNMCKLKPLLNKWLEETDSSS,-1 ± 0.49
9,EDAPSSDDLEQFAKQFKQRRIKCGFTQADVGLALGTLYGNVFSQTTICRFEALQLSFKNMCKLKPLLNKWLEETDSSS,-0.629 ± 0.16
10,EDAPSSDDLEQFAKQFKQRRIKFGFTQADVGLALGTLYGNVFSQTTICRFEALQLSFKNMCKLKPLLNKWLEETDSSS,-0.219 ± 0.15
11,EDAPSSDDLEQFAKQFKQRRIKDGFTQADVGLALGTLYGNVFSQTTICRFEALQLSFKNMCKLKPLLNKWLEETDSSS,-0.301 ± 0.2
12,EDAPSSDDLEQFAKQFKQRRIKAGFTQADVGLALGTLYGNVFSQTTICRFEALQLSFKNMCKLKPLLNKWLEETDSSS,-0.226 ± 0.075
13,EDAPSSDDLEQFAKQFKQRRIKTGFTQADVGLALGTLYGNVFSQTTICRFEALQLSFKNMCKLKPLLNKWLEETDSSS,-0.647 ± 0.17
14,EDAPSSDDLEQFAKQFKQRRIKEGFTQADVGLALGTLYGNVFSQTTICRFEALQLSFKNMCKLKPLLNKWLEETDSSS,-0.47 ± 0.15
15,EDAPSSDDLEQFAKQFKQRRIKGGFTQADVGLALGTLYGNVFSQTTICRFEALQLSFKNMCKLKPLLNKWLEETDSSS,-0.56 ± 0.12
16,EDAPSSDDLEQFAKQFKQRRIKVGFTQADVGLALGTLYGNVFSQTTICRFEALQLSFKNMCKLKPLLNKWLEETDSSS,-0.686 ± 0.11
17,EDAPSSDDLEQFAKQFKQRRIKWGFTQADVGLALGTLYGNVFSQTTICRFEALQLSFKNMCKLKPLLNKWLEETDSSS,-0.224 ± 0.09

# — the Human Domainome abundance scans (Beltran et al. 2025)
